Measured values published in US20060024313A1, “Agents that disrupt dimer formation in DPP-IV family of prolyl dipeptidases” (priority 2004, published 2006).
“And” between values parts separate entries of the source, which are not always exact repeats. Equal values may be shown once. Marks after values point to notes of the source that are not given here. Peptide text beside a SMILES is read from it.

Key:
DPP-IV [1] = assay: Kinetic constant measurements with chromogenic substrate H-Gly-Pro-pNA; assay type: biochemical, human; details: for Km / kcat: substrate H-Gly-Pro-pNA
Method: To measure the kinetic parameters, the chromogenic substrate H-Gly-Pro-pNA was utilized to initiate the reaction, which was monitored at OD 405 nm as a function of time (21). […] The initial rate was measured with less than 10% substrate depletion for the first 10 to 300 seconds. The steady-state parameters, kcat and Km, were determined from initial velocity measurements at 0.5 to 5 Km of the substrate concentrations. Lineweaver-Burk plots were analyzed using non-linear regression of the Michaelis-Menten equation. Correlation coefficients better than 0.99 were obtained throughout.

[2] = Size exclusion chromatography (gel filtration, Superdex 200); assay type: physicochemical; details: gel filtration experiments; PBS buffer
Method: Chemical crosslinking in intact cells was conducted as described (24). Size exclusion chromatography was conducted at 4° C. Purified proteins (0.5 ml at a concentration of 5 uM) were applied to a Superdex 200 10/30 column (10×300-310 mm) pre-equilibrated with PBS. The sample was eluted with the same buffer at 0.3 ml/min and 0.25 ml fractions were collected. The Superdex 200 10/30 column was calibrated with the Stokes Radii of ferritin (6.1 nm), catalase (5.22 nm), aldolase (4.81 nm), albumin (3.55 nm), ovalbumin (3.05 nm) and chymotrypsinogen A (2.09 nm) from Amersham-Pharmacia.

[3] = Analytical ultracentrifugation (AUC): sedimentation velocity and equilibrium; assay type: physicochemical; details: for quaternary structure (monomer/dimer) by AUC: PBS buffer where stated; for Stokes' radius (Rs): sedimentation velocity experiments
Method: Buffer was changed using an Amicon device and DPP-IV proteins were allowed to equilibrate for at least four hours or longer as indicated in the text at 25° C. after buffer changes. The sedimentation coefficients (S) of the enzyme were estimated by a Beckman-Coulter XL-A analytical ultracentrifuge with an An60Ti rotor as described (25). Sedimentation velocity analysis was performed at 40,000 rpm at 25° C. with standard double sector aluminum centerpieces. The UV absorption of the cells was scanned every 5 min for 4 hours. Sedimentation equilibrium was performed at 20° C. with six-channel open centerpieces and then centrifuged at 12,000 rpm for 12 hours. The data from both sedimentation velocity and sedimentation experiments were analyzed with the SedFit version 8.7 program to obtain molecular weights and sedimentation coefficients (25). Sednterp version 1.07 program is used to obtain solvent density, viscosity, Stokes' radius (Rs) and anhydrous frictional ratio (f/fo).

DPP-IV [4] = assay: Dilution experiment (specific activity after two-fold dilutions); assay type: biochemical, human; details: 200 nM to 1.6 nM enzyme, 16 hours at 25° C., 10 uM H-Gly-Pro-pNA
Method: Enzyme concentrations ranging from 200 nM to 1.6 nM were used in the dilution experiments. The experiments were carried out with consecutive two-fold dilutions in PBS containing 0.1% BSA and 1 mM DTT (dithiothreitol). The solution after dilution was incubated at 25° C. for 16 hours to ensure attainment of dimer-monomer equilibrium. The reaction was initiated by adding the substrate H-Gly-Pro-pNA at a final concentration of 10 uM for both wild type DPP-IV and H750A proteins. The initial rate of the reaction was recorded and converted to specific activity.

H750A monomers = H750A monomers (Homo sapiens, UniProt P27487, H750A); assay: AUC of H750A in the presence of inhibitor or dipeptide product; details: PBS buffer, FIG. 14
H750A monomers, sequence (P27487 39-766 H750A): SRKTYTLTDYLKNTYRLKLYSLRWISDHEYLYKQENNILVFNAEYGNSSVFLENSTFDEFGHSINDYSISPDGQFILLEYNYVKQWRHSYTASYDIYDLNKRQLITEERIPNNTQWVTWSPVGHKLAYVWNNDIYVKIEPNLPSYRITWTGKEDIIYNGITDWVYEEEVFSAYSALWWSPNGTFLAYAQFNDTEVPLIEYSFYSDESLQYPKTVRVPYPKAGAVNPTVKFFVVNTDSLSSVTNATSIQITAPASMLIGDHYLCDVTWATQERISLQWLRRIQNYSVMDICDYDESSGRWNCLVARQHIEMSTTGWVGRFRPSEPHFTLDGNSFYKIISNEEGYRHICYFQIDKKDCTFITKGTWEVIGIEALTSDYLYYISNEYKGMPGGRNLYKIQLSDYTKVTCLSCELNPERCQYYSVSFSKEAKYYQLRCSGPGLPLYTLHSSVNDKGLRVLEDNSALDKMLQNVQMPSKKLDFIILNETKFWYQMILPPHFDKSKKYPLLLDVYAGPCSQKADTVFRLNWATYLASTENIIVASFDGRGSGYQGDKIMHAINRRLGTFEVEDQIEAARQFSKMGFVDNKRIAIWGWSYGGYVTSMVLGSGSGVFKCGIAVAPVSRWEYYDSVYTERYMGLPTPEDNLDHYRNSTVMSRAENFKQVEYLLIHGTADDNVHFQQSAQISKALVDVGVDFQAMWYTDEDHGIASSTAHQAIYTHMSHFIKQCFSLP
Method: AUC was performed for H750A in the presence of the proline-mimetic inhibitor and Gly-Pro dipeptide product, since the substrate Gly-Pro-pNA is cleaved by the enzyme.

| Compound | Km (DPP-IV [1]; High salt buffer) [µM] | kcat (DPP-IV [1]; High salt buffer) [s⁻¹] | Km (DPP-IV [1]; PBS buffer) [µM] | kcat (DPP-IV [1]; PBS buffer) [s⁻¹] | AUC analysis or catalytic activities in low salt buffer (DPP-IV [1]; low salt buffer compared to PBS buffer (data not shown)) | Stokes' radius (Rs) [2] | Sedimentation coefficient (s20, w) ([3]; High salt buffer) | quaternary structure (subunit composition) by sedimentation velocity ([3]; High salt buffer (0.5 M sodium sulfate)) | Anhydrous frictional ratio (f/fo) ([3]; PBS buffer) | Sedimentation coefficient (s20, w) ([3]; PBS buffer) [S] | quaternary structure (monomer/dimer) by AUC [3] | Stokes' radius (Rs) ([3]; High salt buffer) | Stokes' radius (Rs) ([3]; PBS buffer) | specific activity on dilution (DPP-IV [4]) | dimer formation of H750A monomers in the presence of the substance (H750A monomers) |
| --- | --- | --- | --- | --- | --- | --- | --- | --- | --- | --- | --- | --- | --- | --- | --- |
| rDPP-IV: recombinant wild-type human DPP-IV (aa 39 to 766) from baculoviral infected insect cells | 181 | 57 | 90 | 87 | no differences | 5.6 nm and 5.6^a nm | 5.0 S and 4.9 S | dimer | 1.4 | 8.4 | non-spherical dimer | 4.9^b nm | 5.0^b nm | no decrease in specific activity | – |
| sDPP-IV: endogenous DPP-IV purified from human semen | – | – | 96 | 73 | – | 5.9 nm and 5.9^a nm | – | – | 1.4 | 9.1 | homodimeric | – | 5.8^b nm | no decrease in specific activity | – |
| NCC(=O)N1CCC[C@H]1C(=O)O [G-P-OH, Gly-Pro] (H-Gly-Pro-OH) | – | – | – | – | – | – | – | – | – | – | – | – | – | – | did not associate to form dimers |
